Our source for the stoichiometry N values is paper PMC4755347.

What is called stoichiometry N is the number of molecules, sites or subunits per partner or assembly.

This experiment addresses C. jejuni outer membrane channel CmeC (C. jejuni) (UniProt Q8RTE3). As to the kind of experiment: crystal structure.

Substance “C. jejuni outer membrane channel CmeC (from UniProt Q8RTE3 1-492) (natural protein)” showed a stoichiometry N of 3.
